Measured values taken from paper PMC5330279.

What was measured:
[1] = target: hCRBPII Q108K:K40L:Y60W (human); assay: SEC

percent dimer (hCRBPII E72A (human))	stoichiometry N [1]	Substance
50%		hCRBPII E72A (natural protein)
	2	hCRBPII Q108K:K40L:Y60W (natural protein)
